In publication PMC6053418, “CTC1-STN1 terminates telomerase while STN1-TEN1 enables C-strand synthesis during telomere replication in colon cancer cells”:

B1: NonTel fold-back 18 nt 3' overhang (structured_DNA)
DNA: ACGACTGCATCTAGCTTTTTGCTAGATGCAGTCGTAGCGTATCCGTTCAGTTG
B2: smFRET junction, 18 nt overhang (dsDNA)
DNA 1: TGGCGACGGCAGCGAGGCAGCGTATCCGTTCAGTTG
DNA 2: GCCTCGCTGCCGTCGCCA

Tests used:
CST (CTC1-STN1-TEN1) [1] = target: T1, CST (CTC1-STN1-TEN1) (Homo sapiens, UniProt Q2NKJ3;Q9H668;Q86WV5 1-1217;1-368;1-123); experiment: EMSA; apparent Kd; EMSA: 25 mM Tris-HCl pH 8.0, 100 mM NaCl, 1 mM DTT; 0.1 nM DNA, 30 min RT (Kd(app): 0.01 nM DNA, 18 h, 4 °C). smFRET: 25 mM Tris-HCl pH 8.0, 150 mM NaCl, 1 mM D; settings: protein: recombinant; tags: FLAG-CTC1, FLAG-STN1, untagged TEN1; copies: 1;1;1; label: 32P
CS (CTC1-STN1) [2] = target: T2, CS (CTC1-STN1) (Homo sapiens, UniProt Q2NKJ3;Q9H668 1-1217;1-368); experiment: as above; settings: protein: recombinant; tags: FLAG-CTC1, FLAG-STN1; copies: 1;1; label: 32P
CST (CTC1-STN1-TEN1) [3] = target: T1, CST (CTC1-STN1-TEN1); experiment: EMSA; EMSA: 25 mM Tris-HCl pH 8.0, 100 mM NaCl, 1 mM DTT; 0.1 nM DNA, 30 min RT (Kd(app): 0.01 nM DNA, 18 h, 4 °C). smFRET: 25 mM Tris-HCl pH 8.0, 150 mM NaCl, 1 mM D; settings: protein: recombinant; tags: FLAG-CTC1, FLAG-STN1, untagged TEN1; copies: 1;1;1; label: 32P; hairpin, 15 bp stem, T5 loop, 3' overhang 18 nt
CS (CTC1-STN1) [4] = target: T2, CS (CTC1-STN1); experiment: EMSA; about 5-fold less efficient than CST; EMSA: 25 mM Tris-HCl pH 8.0, 100 mM NaCl, 1 mM DTT; 0.1 nM DNA, 30 min RT (Kd(app): 0.01 nM DNA, 18 h, 4 °C). smFRET: 25 mM Tris-HCl pH 8.0, 150 mM NaCl, 1 mM D; settings: protein: recombinant; tags: FLAG-CTC1, FLAG-STN1; copies: 1;1; label: 32P; hairpin, 15 bp stem, T5 loop, 3' overhang 18 nt
CST (CTC1-STN1-TEN1) [5] = target: T1, CST (CTC1-STN1-TEN1); experiment: smFRET; 2 nM protein; dwell time 14.32 ± 0.81 (s; assigned from figure text); EMSA: 25 mM Tris-HCl pH 8.0, 100 mM NaCl, 1 mM DTT; 0.1 nM DNA, 30 min RT (Kd(app): 0.01 nM DNA, 18 h, 4 °C). smFRET: 25 mM Tris-HCl pH 8.0, 150 mM NaCl, 1 mM D; settings: protein: recombinant; tags: FLAG-CTC1, FLAG-STN1, untagged TEN1; copies: 1;1;1; label: strand 1 3'-Cy3; strand 2 5'-Cy5 and 3'-biotin; 18 bp duplex, 3' overhang 18 nt
CS (CTC1-STN1) [6] = target: T2, CS (CTC1-STN1); experiment: smFRET; 2 nM protein, imaged immediately; dwell time 8.22 ± 0.64 (s; assigned from figure text), 43% lower than CST; lost after flushing; EMSA: 25 mM Tris-HCl pH 8.0, 100 mM NaCl, 1 mM DTT; 0.1 nM DNA, 30 min RT (Kd(app): 0.01 nM DNA, 18 h, 4 °C). smFRET: 25 mM Tris-HCl pH 8.0, 150 mM NaCl, 1 mM D; settings: protein: recombinant; tags: FLAG-CTC1, FLAG-STN1; copies: 1;1; label: strand 1 3'-Cy3; strand 2 5'-Cy5 and 3'-biotin; 18 bp duplex, 3' overhang 18 nt

T2 sequence (Q2NKJ3 whole entry, chain 1 of 2): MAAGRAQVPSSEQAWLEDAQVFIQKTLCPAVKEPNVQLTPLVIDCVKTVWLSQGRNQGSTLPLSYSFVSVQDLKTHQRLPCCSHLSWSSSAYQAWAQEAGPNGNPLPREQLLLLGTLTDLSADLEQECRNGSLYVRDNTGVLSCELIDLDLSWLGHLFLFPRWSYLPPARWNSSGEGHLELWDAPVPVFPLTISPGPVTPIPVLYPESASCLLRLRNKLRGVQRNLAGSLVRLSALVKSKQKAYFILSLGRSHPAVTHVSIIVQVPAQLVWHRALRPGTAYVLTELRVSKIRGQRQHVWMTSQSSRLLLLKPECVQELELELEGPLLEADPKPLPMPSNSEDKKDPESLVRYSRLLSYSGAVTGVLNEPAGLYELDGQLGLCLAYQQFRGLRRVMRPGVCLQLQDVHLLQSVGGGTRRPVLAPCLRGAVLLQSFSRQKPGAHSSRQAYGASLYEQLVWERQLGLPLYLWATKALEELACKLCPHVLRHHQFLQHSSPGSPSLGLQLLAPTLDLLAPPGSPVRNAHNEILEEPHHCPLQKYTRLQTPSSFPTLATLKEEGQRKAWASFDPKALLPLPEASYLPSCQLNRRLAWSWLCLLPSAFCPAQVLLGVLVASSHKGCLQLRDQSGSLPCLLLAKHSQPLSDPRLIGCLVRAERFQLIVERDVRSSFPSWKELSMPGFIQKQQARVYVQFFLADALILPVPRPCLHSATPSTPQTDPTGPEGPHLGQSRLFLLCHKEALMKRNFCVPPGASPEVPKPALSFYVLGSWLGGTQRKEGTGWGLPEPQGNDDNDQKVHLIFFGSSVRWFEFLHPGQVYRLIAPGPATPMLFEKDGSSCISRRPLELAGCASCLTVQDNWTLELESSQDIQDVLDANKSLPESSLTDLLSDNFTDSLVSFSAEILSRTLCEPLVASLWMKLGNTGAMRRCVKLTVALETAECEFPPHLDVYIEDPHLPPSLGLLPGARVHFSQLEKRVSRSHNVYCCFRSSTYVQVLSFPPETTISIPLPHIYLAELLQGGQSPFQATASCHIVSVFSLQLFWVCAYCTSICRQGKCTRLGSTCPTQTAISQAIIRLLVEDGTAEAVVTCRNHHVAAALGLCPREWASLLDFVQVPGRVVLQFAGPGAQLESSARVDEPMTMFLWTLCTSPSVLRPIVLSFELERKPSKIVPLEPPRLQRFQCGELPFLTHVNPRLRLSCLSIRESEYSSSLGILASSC
T2 sequence (Q9H668 whole entry, chain 2 of 2): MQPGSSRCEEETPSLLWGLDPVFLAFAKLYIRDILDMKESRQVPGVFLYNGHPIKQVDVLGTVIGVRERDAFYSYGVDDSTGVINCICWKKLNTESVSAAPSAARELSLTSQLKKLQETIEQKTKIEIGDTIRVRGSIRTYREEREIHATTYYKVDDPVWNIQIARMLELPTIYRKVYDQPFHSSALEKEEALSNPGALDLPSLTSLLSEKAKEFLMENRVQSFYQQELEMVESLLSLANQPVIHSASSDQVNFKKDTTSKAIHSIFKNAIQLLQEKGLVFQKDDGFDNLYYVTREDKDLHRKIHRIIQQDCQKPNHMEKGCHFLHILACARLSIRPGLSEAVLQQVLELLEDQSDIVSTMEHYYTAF
T1 sequence (Q2NKJ3 whole entry, chain 1 of 3): as the sequence (Q2NKJ3 whole entry, chain 1 of 2) above
T1 sequence (Q9H668 whole entry, chain 2 of 3): as the sequence (Q9H668 whole entry, chain 2 of 2) above
T1 sequence (Q86WV5 whole entry, chain 3 of 3): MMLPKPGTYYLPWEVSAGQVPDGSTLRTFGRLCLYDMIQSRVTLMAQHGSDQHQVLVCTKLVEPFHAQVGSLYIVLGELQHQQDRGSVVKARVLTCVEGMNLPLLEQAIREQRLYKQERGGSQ

Row | Binder | Kd (CST (CTC1-STN1-TEN1) [1]) | Kd (CS (CTC1-STN1) [2]) | also measured
1 | GGTTAGGGTTAGGGTTAGGGTTAGGGTTAGGGTTAG (ssDNA) [Tel-36] | 0.02 ± 0.03 nM | 0.33 ± 0.08 nM | 
2 | GGTTAGGGTTAGGGTTAG (ssDNA) [Tel-18] | 0.21 ± 0.07 nM | 1.04 ± 0.46 nM | 
3 | B1 |  |  | binding result (CST (CTC1-STN1-TEN1) [3]): binds; binding result (CS (CTC1-STN1) [4]): binds
4 | B2 |  |  | binding result (CST (CTC1-STN1-TEN1) [5]): binds; binding result (CS (CTC1-STN1) [6]): binds
5 | AGCGTATCCGTTCAGTTGAGCGTATCCGTTCAGTTGAGCGTATCCGTT (ssDNA) [NonTel-48] | 0.01 ± 0.005 nM | 0.08 ± 0.05 nM | 
